The RNAGym collection of RNA variant scans (doi:10.1073/pnas.2313332121)

B1: TPR t1 (parent)
chain: GACCAAUCUGCCCUCAGAGCUCGAGAACAUCUUCGGAUGCAGAGGAGGCAGGCUUCGGUGGCGCGAUAGCGCCAACGUCCUCAACCUCCAAUGCAUCCCACCACAUGAUGAUGCCUGAAGAGCCUUGGUUUUUUG

Variants of: B1
Experiment: polymerase ribozyme fitness, log enrichment relative to wild type (log ratio); higher = more active; in vitro selection for triplet polymerase activity
Outline: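 Each subunit of a heterodimeric triplet polymerase ribozyme was represented by a PCR-built, transcribed mutant library that underwent triplicate single-round in vitro selection with frozen incubation at −7 °C. Extended constructs were recovered by gel excision, streptavidin-bead capture and RT-PCR, and Illumina sequencing of input and output libraries kept genotypes with ≥10 input reads and ≥1 read per output. Fitness is the logarithm of genotype enrichment relative to wild-type enrichment, from inverse-variance-weighted replicate averages, with a logarithm base of 2.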

| Variant | polymerase ribozyme fitness (log ratio) |
| --- | --- |
| A6C G47A C124G | 0.159 |
| A5U U9A A18U | -2.06 |
| C76U G107C A121G U126A | -4.6 |
| A2G G17C C56U | -4.71 |
| A26C C56U G61A G63U C115U U129G U131A | -4.23 |
| A16U G52C G71U G117C A118G U126A | -6.61 |
| A2C G69A C101U C104U G113A G127C U129C | -5.09 |
| A83C A111U U134G | -2.14 |
| C11G U21A C49U G117C | -4.04 |
| C4G G36U A90C C124U | -3.18 |
| C15A G113A | -3.63 |
| G52C G122A | -1.3 |
| C53A C73A U116A | -3.87 |
| C12G G117U | -1.22 |
| A74U A84U U129G | -1.9 |
| G52U C82G | -2.18 |
| C49G A103U | -5.7 |
| C12U C70U C94U | 0.056 |
| C82G A84U | 0.00652 |
| C12G C34A A41C G71C C79A | -6.92 |
| C34G A68C G113U U126A U133C | -5.64 |

| Variant | polymerase ribozyme fitness (log ratio) |
| --- | --- |
| U78C C80A U116G G120C C123A | -1.86 |
| C53A C56U C72G A111C | -1.38 |
| C53A C86U G128U | -1.61 |
| U14C C53G C73U A83G C94U | -3.11 |
| C72U C85A | -1.82 |
| C11U A84C U92G | -3.8 |
| C56A C64U C115A U126C | -2.05 |
| A2U A6U C13U C20U G57A C82G | -4.79 |
| C79G A103G | -5.92 |
| A6C A41U U106A | -1.37 |
| C8G U87A C101A A105C | -3.4 |
| A41C C64G | -6.49 |
| G57U U87A | -0.845 |
| G19A C62U U78G | -3.47 |
| C13U C115U | -0.41 |
| G48U A66G C86A U125G G127C | -3.31 |
| A41U A46U G61A | -1.65 |
| A66C C124U | 0.285 |
| U134A | 0.465 |
| G61A C115U | -0.993 |
| G45A G48U U54C C56G G69U U78G G93U C123G U130A | -2.55 |

| Variant | polymerase ribozyme fitness (log ratio) |
| --- | --- |
| C8U C53A G117A U130G | -0.499 |
| C3G A5U G60C A90G | -1.39 |
| C72U A100C | -1.3 |
| G42U C89U | -0.954 |
| G110U G117A | -2.69 |
| G65U C123G | -4.68 |
| C34G A95G U109G G117C | -6.44 |
| A37C C56U | 0.093 |
| C12G G39U C53G | -0.932 |
| G39U C79G U96C | -4.66 |
| C20U U96G C123G U129A | -1.64 |
| C28A G110C C115U U133A | -5.27 |
| C85U | -0.966 |
| G19C A37U C62G C124U | -3.51 |
| A50U G69A C101A U130G | -6.9 |
| C22G C53U | -4.09 |
| C12U G42U G52U A66U C72U C115A G117A | -6.98 |
| U87A C94A | -0.438 |
| C15G A66U | -4.55 |
| U9G A41U G61U U87A G110A | -3.56 |
| G51A A95U | -3 |

| Variant | polymerase ribozyme fitness (log ratio) |
| --- | --- |
| U54A U106A | -1.04 |
| C82A U112A | 1.06 |
| A29C C124G | -0.564 |
| C8U G47A U59A A74U C124A | 0.355 |
| C20G C31U G35U U109G | -4.7 |
| A16G C56A G71U C124A U130A | 0.162 |
| C64G C123U | -3.63 |
| G42U C73A U125A | -1.74 |
| A5U C53U G63A C79G G127C | -2.9 |
| A2C U14G A37C C49G G60C U96A A111U | -6.59 |
| C62A C85U A121G | 0.356 |
| G39U G61U A121C | 1.22 |
| A43G A108G | -4.26 |
| A43U U92C U112G | -2.71 |
| C3G C11A C12A | -3.85 |
| C34U U96A | -5.35 |
| G39A G117A | -1.8 |
| A2U U54C U112G G113A U133A | -2.96 |
| A41G C53G A84C U126A | -2.86 |
| C11G A29U G57A G60A C98U | -4.69 |
| U32C G60C A75C C79G A118U G135U | -2.26 |
